The record followed here is PMC5025857, “Redox-dependent Regulation of Gluconeogenesis by a Novel Mechanism Mediated by a Peroxidatic Cysteine of Peroxiredoxin” (Scientific Reports, 2016).

To fix the notation:
B1: Tsa1 (wild type) [S. cerevisiae] / HA-tagged Pyk1 (HA-Pyk1) [S. cerevisiae] (parent)
chain 1: MVAQVQKQAPTFKKTAVVDGVFDEVSLDKYKGKYVVLAFIPLAFTFVCPTEIIAFSEAAKKFEEQGAQVLFASTDSEYSLLAWTNIPRKEGGLGPINIPLLADTNHSLSRDYGVLIEEEGVALRGLFIIDPKGVIRHITINDLPVGRNVDEALRLVEAFQWTDKNGTVLPCNWTPGAATIKPTVEDSKEYFEAANK
chain 2: MSRLERLTSLNVVAGSDLRRTSIIGTIGPKTNNPETLVALRKAGLNIVRMNFSHGSYEYHKSVIDNARKSEELYPGRPLAIALDTKGPEIRTGTTTNDVDYPIPPNHEMIFTTDDKYAKACDDKIMYVDYKNITKVISAGRIIYVDDGVLSFQVLEVVDDKTLKVKALNAGKICSHKGVNLPGTDVDLPALSEKDKEDLRFGVKNGVHMVFASFIRTANDVLTIREVLGEQGKDVKIIVKIENQQGVNNFDEILKVTDGVMVARGDLGIEIPAPEVLAVQKKLIAKSNLAGKPVICATQMLESMTYNPRPTRAEVSDVGNAILDGADCVMLSGETAKGNYPINAVTTMAETAVIAEQAIAYLPNYDDMRNCTPKPTSTTETVAASAVAAVFEQKAKAIIVLSTSGTTPRLVSKYRPNCPIILVTRCPRAARFSHLYRGVFPFVFEKEPVSDWTDDVEARINFGIEKAKEFGILKKGDTYVSIQGFKAGAGHSNTLQVSTV

The first assay covers variants of B1. Kind of assay: pull-down (co-IP with anti-HA beads, anti-Tsa1 immunoblot, band quantification). The conditions noted are these: +DTT, lane 9, lysate 67 μg/lane and 111 μg/lane for HA-Pyk1 and Tsa1, parent: 1. In general terms: Immunoblotting shows a protein as a band on a membrane.
For chain 1 MVAQVQKQAPTFKKTAVVDGVFDEVSLDKYKGKYVVLAFIPLAFTFVTPTEIIAFSEAAKKFEEQGAQVLFASTDSEYSLLAWTNIPRKEGGLGPINIPLLADTNHSLSRDYGVLIEEEGVALRGLFIIDPKGVIRHITINDLPVGRNVDEALRLVEAFQWTDKNGTVLPTNWTPGAATIKPTVEDSKEYFEAANK [chain 1 C48T C171T], the ratio to parent was 0.5.

Staying with this assay, now noted: +DTT, lane 9, lysate 67 μg/lane and 111 μg/lane for HA-Pyk1 and Tsa1, parent: 3.1.
Regarding chain 1 MVAQVQKQAPTFKKTAVVDGVFDEVSLDKYKGKYVVLAFIPLAFTFVTPTEIIAFSEAAKKFEEQGAQVLFASTDSEYSLLAWTNIPRKEGGLGPINIPLLADTNHSLSRDYGVLIEEEGVALRGLFIIDPKGVIRHITINDLPVGRNVDEALRLVEAFQWTDKNGTVLPTNWTPGAATIKPTVEDSKEYFEAANK [chain 1 C48T C171T], the screen value (% of Total Tsa1) amounted to 1.3.
